Data on 1 molecule can be found in article PMC4383067 (Acta Neuropathologica Communications, 2015).

Test [1] deals with Amyloid fibrils of human PrP Δ100-120 (human, UniProt P04156 23-231, ∆100-120). Nature of the test: static light scattering kinetics. The settings on record: both partners purified.
For test [2], the target named is Amyloid fibrils of human PrP Δ23-99 (human, UniProt P04156 100-231). In words: static light scattering kinetics. The settings on record: both partners purified.

B1: Full-length human acetylcholinesterase (dimeric, recombinant) (enzyme)
chain: EGREDAELLVTVRGGRLRGIRLKTPGGPVSAFLGIPFAEPPMGPRRFLPPEPKQPWSGVVDATTFQSVCYQYVDTLYPGFEGTEMWNPNRELSEDCLYLNVWTPYPRPTSPTPVLVWIYGGGFYSGASSLDVYDGRFLVQAERTVLVSMNYRVGAFGFLALPGSREAPGNVGLLDQRLALQWVQENVAAFGGDPTSVTLFGESAGAASVGMHLLSPPSRGLFHRAVLQSGAPNGPWATVGMGEARRRATQLAHLVGCPPGGTGGNDTELVACLRTRPAQVLVNHEWHVLPQESVFRFSFVPVVDGDFLSDTPEALINAGDFHGLQVLVGVVKDEGSYFLVYGAPGFSKDNESLISRAEFLAGVRVGVPQVSDLAAEAVVLHYTDWLHPEDPARLREALSDVVGDHNVVCPVAQLAGRLAAQGARVYAYVFEHRASTLSWPLWMGVPHGYEIEFIFGIPLDPSRNYTAEEKIFAQRLMRYWANFARTGDPNEPRDPKAPQWPPYTAGAQQYVSLDLRPLEVRRGLRAQACAFWNRFLPKLLSATDTLDEAERQWKAEFHRWSSYMVHWKNQFDHYSKQDRCSDL
notes: also called AChE; dimeric AChE
For B1, the “stoichiometry N” value in test [1] and in test [2] was 0.5 each time.
